Measurements as given in US7648963B2, “Molecules of the PYRIN/NBS/LRR protein family and uses thereof” (Millennium Pharmaceuticals, Inc., priority 2001, dated 2010).
Residues, ends and D or L forms follow the SMILES beside them. *: point of attachment. Cbz = O=C(OCc1ccccc1)*; CH2F = FC*

Experiments:
caspase-1 = experiment: IL-1β secretion assay in COS-7L cells (ELISA for mouse IL-1β); type: cell-based; details: for IL-1β production (caspase-1 activation): co-expression with caspase-1 and CARD-5 at low protein levels, FIG. 14B
Protocol: Experiments were next carried out using an IL-1β secretion assay to determine whether CARD-5 and PYRIN-8 induce activation of caspase-1. Active caspase-1 cleaves pro-IL-1β, resulting in the secretion of bioactive IL-1β from cells. In the IL-1β secretion assays, COS-7L cells (GIBCO) were co-transfected in 12-well (22-mm) plates using LipofectAMINE […] reagent (Invitrogen) with plasmids encoding mouse pro-IL-1β and indicated expression plasmids (total DNA=1.04 μg). Supernatants were collected 24 hours after transfection and subjected to ELISA for mouse IL-1β according to the manufacturer's protocol (R&D Systems).
The caspase-1 inhibitor Z-WEHD-FMK was added to cells following transfection at a final concentration of 100 μM.

CARD-5 = target: T1, CARD-5 (Homo sapiens, UniProt Q9ULZ3); experiment: Cellular co-localization (immunostaining) in 293T embryonic kidney cells; type: cell-based; details: 293T cells; FLAG-tagged PYRIN-8 construct co-expressed with HA-tagged CARD-5
T1 construct: expressed in transfected cells; host or cells: 293T
T1 sequence (Q9ULZ3 whole entry): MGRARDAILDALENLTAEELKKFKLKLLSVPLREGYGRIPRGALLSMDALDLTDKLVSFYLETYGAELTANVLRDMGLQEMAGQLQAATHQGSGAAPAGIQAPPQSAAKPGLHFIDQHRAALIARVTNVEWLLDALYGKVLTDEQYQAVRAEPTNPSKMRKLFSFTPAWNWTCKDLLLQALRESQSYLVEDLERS
Protocol: Cellular co-localization studies were carried out to determine whether PYRIN-8 interacts with CARD-5 (also known as ASC) when the two proteins were overexpressed in 293T embryonic kidney cells. Plasmids expressing either full-length PYRIN-8 (PYRIN-8FL, residues 1-1061 of SEQ ID NO:18) or a PYRIN-8 truncation mutant lacking the PYRIN domain (PYRIN-8ΔPYRIN, residues 89-1061 of SEQ ID NO:18) with a C-terminal FLAG epitope were constructed using pCI (Promega). FLAG-tagged PYRIN-8 and HA-tagged CARD-5 were expressed in cells and detected using a mixture of anti-HA and anti-FLAG antibodies.
In immunostaining assays to detect cellular localization, 293T cells were transfected in poly-D-lysine-coated glass chamber slides (BioCoat, Becton-Dickinson Labware) with plasmids expressing HA-tagged CARD-5 and either FLAG-tagged PYRIN-8 or PYRIN-8ΔPYRIN using SuperFect transfection reagent (Qiagen). Cells were fixed 24 hours after transfection in 4% paraformaldehyde, permeabilized and blocked in a buffer containing 0.3% Triton X-100, and incubated with the following primary and secondary antibodies: rabbit anti-HA polyclonal Y-11 (Santa Cruz Biotechnology), mouse anti-FLAG monoclonal antibody M2 (Sigma), Alexa-350 goat anti-rabbit IgG (Molecular Probes), and Alexa-598 goat anti-mouse IgG (Molecular Probes). […]

| Molecule | effect on IL-1β secretion induced by PYRIN-8 and CARD-5 (caspase-1; inhibitor added following transfection at a final concentration of 100 μM, FIG. 14C) | co-localization with CARD-5 punctate structures (CARD-5) | IL-1β production (caspase-1 activation) (caspase-1) |
| --- | --- | --- | --- |
| COC(=O)CC[C@H](NC(=O)[C@H](Cc1c[nH]c2ccccc12)NC(=O)OCc1ccccc1)C(=O)N[C@@H](Cc1cnc[nH]1)C(=O)N[C@@H](CC(=O)OC)C(=O)CF [Z-WEHD, Z-WEHD-FMK, reference compound] (Cbz-WE(OMe)HD(OMe)-CH2F) | blocked the ability of PYRIN-8 and CARD-5 to induce the secretion of IL-1β |  |  |
| PYRIN-8: full-length human PYRIN-8 protein, residues 1-1061 of SEQ ID NO:18, expressed from plasmid (protein, listed as Homo sapiens) MLRTAGRDGLCRLSTYLEELEAVELKKFKLYLGTATELGEGKIPWGSMEKAGPLEMAQLLITHFGPEEAWRLALSTFERINRKDLWERGQREDLVRDTPPGGPSSLGNQSTCLLEVSLVTPRKDPQETYRDYVRRKFRLMEDRNARLGECVNLSHRYTRLLLVKEHSNPMQVQQQLLDTGRGHARTVGHQASPIKIETLFEPDEERPEPPRTVVMQGAAGIGKSMLAHKVMLDWADGKLFQGRFDYLFYINCREMNQSATECSMQDLIFSCWPEPSAPLQELIRVPERLLFIIDGFDELKPSFHDPQGPWCLCWEEKRPTELLLNSLIRKKLLPELSLLITTRPTALEKLHRLLEHPRHVEILGFSEAERKEYFYKYFHNAEQAGQVFNYVRDNEPLFTMCFVPLVCWVVCTCLQQQLEGGGLLRQTSRTTTAVYMLYLLSLMQPKPGAPRLQPPPNQRGLCSLAADGLWNQKILFEEQDLRKHGLDGEDVSAFLNMNIFQKDINCERYYSFIHLSFQEFFAAMYYILDEGEGGAGPDQDVTRLLTEYAFSERSFLALTSRFLFGLLNEETRSHLEKSLCWKVSPHIKMDLLQWIQSKAQSDGSTLQQGSLEFFSCLYEIQEEEFIQQALSHFQVIVVSNIASKMEHMVSSFCLKRCRSAQVLHLYGATYSADGEDRARCSAGAHTLLVQLPERTVLLDAYSEHLAAALCTNPNLIELSLYRNALGSRGVKLLCQGLRHPNCKLQNLRLKRCRISSSACEDLSAALIANKNLTRMDLSGNGVGFPGMMLLCEGLRHPQCRLQMIQLRKCQLESGACQEMASVLGTNPHLVELDLTGNALEDLGLRLLCQGLRHPVCRLRTLWLKICRLTAAACDELASTLSVNQSLRELDLSLNELGDLGVLLLCEGLRHPTCKLQTLRLGICRLGSAACEGLSVVLQANHNLRELDLSFNDLGDWGLWLLAEGLQHPACRLQKLWLDSCGLTAKACENLYFTLGINQTLTDLYLTNNALGDTGVRLLCKRLSHPGCKLRVLWLFGMDLNKMTHSRLAALRVTKPYLDIGC |  | co-localize with CARD-5 | increase in IL-1β production |
| PYRIN-8ΔPYRIN: PYRIN-8 truncation mutant lacking the PYRIN domain, residues 89-1061 of SEQ ID NO:18 (protein, listed as Homo sapiens) GQREDLVRDTPPGGPSSLGNQSTCLLEVSLVTPRKDPQETYRDYVRRKFRLMEDRNARLGECVNLSHRYTRLLLVKEHSNPMQVQQQLLDTGRGHARTVGHQASPIKIETLFEPDEERPEPPRTVVMQGAAGIGKSMLAHKVMLDWADGKLFQGRFDYLFYINCREMNQSATECSMQDLIFSCWPEPSAPLQELIRVPERLLFIIDGFDELKPSFHDPQGPWCLCWEEKRPTELLLNSLIRKKLLPELSLLITTRPTALEKLHRLLEHPRHVEILGFSEAERKEYFYKYFHNAEQAGQVFNYVRDNEPLFTMCFVPLVCWVVCTCLQQQLEGGGLLRQTSRTTTAVYMLYLLSLMQPKPGAPRLQPPPNQRGLCSLAADGLWNQKILFEEQDLRKHGLDGEDVSAFLNMNIFQKDINCERYYSFIHLSFQEFFAAMYYILDEGEGGAGPDQDVTRLLTEYAFSERSFLALTSRFLFGLLNEETRSHLEKSLCWKVSPHIKMDLLQWIQSKAQSDGSTLQQGSLEFFSCLYEIQEEEFIQQALSHFQVIVVSNIASKMEHMVSSFCLKRCRSAQVLHLYGATYSADGEDRARCSAGAHTLLVQLPERTVLLDAYSEHLAAALCTNPNLIELSLYRNALGSRGVKLLCQGLRHPNCKLQNLRLKRCRISSSACEDLSAALIANKNLTRMDLSGNGVGFPGMMLLCEGLRHPQCRLQMIQLRKCQLESGACQEMASVLGTNPHLVELDLTGNALEDLGLRLLCQGLRHPVCRLRTLWLKICRLTAAACDELASTLSVNQSLRELDLSLNELGDLGVLLLCEGLRHPTCKLQTLRLGICRLGSAACEGLSVVLQANHNLRELDLSFNDLGDWGLWLLAEGLQHPACRLQKLWLDSCGLTAKACENLYFTLGINQTLTDLYLTNNALGDTGVRLLCKRLSHPGCKLRVLWLFGMDLNKMTHSRLAALRVTKPYLDIGC |  | failed to associate with the CARD-5 punctate structures | eliminated the synergistic production of IL-1β |
